Test results taken from publication PMC7608815.

Tests used:
purified protein [1] = substrate: CC(C)(COP(=O)(O)OP(=O)(O)OC[C@H]1O[C@@H](n2cnc3c(N)ncnc32)[C@H](O)[C@@H]1OP(=O)(O)O)[C@@H](O)C(=O)NCCC(=O)NCCSC(=O)CC(=O)O; assay: purified protein; conditions: 200 uM p-coumaroyl-CoA, 30 C, 120 nM enzyme
purified protein [2] = substrate: COC(=O)c1cccc(O)c1N; assay: purified protein; format: biochemical, Solanum lycopersicum; conditions: 200 or 500 uM p-coumaroyl-CoA, 30 C, aminoacylation (amide synthesis)

B1: SlCHS (Solanum lycopersicum) (protein)
chain: MVTVEEYRKAQRAEGPATILAIGTSTPSNCVDQSTYPDYYFRITNSEHKTELKEKFKRMCDKSMIKKRYMHLTEEILKENPNMCAYMAPSLDARQDIVVVEVPKLGKRGTQKAIKEWGQPKSKITHLVFCTTSGVDMPACDYQLAKLLPVRPSVKRLMMYQQGCFAGGTVLRLAKDLAENNKGARVLVVCSEITAVTFRGPSESHLDSLVGQALFGDGAAAIIIGSDPIIGVERPLFELVSAAQTLVPDSEGAIDGHLREVGLTFHLLKDVPGLISKNIEKSLLEAFQPLGISDWNSLFWIAHPGGPAILDQVELKLGLKPEKLRATREVLSNYGNMSSACVLFILDEMRKASTKEGLGTTGEGLEWGVLFGFGPGLTVETVVLHSVAA
- Km (purified protein [1]): 21.34 µM
- kcat (purified protein [1]): 0.00157 s⁻¹
- Km (purified protein [2]): 3060 µM
- kcat (purified protein [2]): 0.00603 s⁻¹
